Measured values: patent US20240026334A1

Target: type I collagen
Assay: cell-based or functional assay

- unbound DNA in DNA binding assay (1:1 elastin to collagen): 0.077 µM
- unbound DNA in DNA binding assay (1:2 elastin to collagen): 0.116 µM
Substance: elastin
